Experimental data from patent publication US20180036405A1 (Regeneron, published 2018).
Where a chain is given by its changes, count along the chain named. Numbers in names are those of the source.

B1: H1H151P (antibody, human IgG1, V domains shown)
VH: QVQLQESGPGLVNPSQTLSLTCTVSGGSINSGDYYWSWVRQHPGKGLEWIGYIYYSGSTYYNPSLKSRVTISVDTSKNQFSLKLSSVTVADTAVYYCARVGYSKGYFDSWGQGTLVTVSS
VL: DIQMTQSPSTLSASVGDRVTITCRASESISSWLAWYQQKPGKAPKVLIYDASSLESGVPSRFSGSGSGTEYTLTISSLQPDDFASYYCQQYKSYWTFGQGTKVEIK
notes: Human IgG1 Fc (H1H)
B2: H1H147P (antibody, human IgG1, V domains shown)
VH: EVQLVESGPGLVQPSQTLSLTCTVSGGSINSGDFYWSWIRQHPGKGLEWIGHIYYSGITYYSPSLKSRLTISVDTSKNQFSLKLSSVTAADTAVYYCARKRVTGEVDYWGQGTLVTVSS
VL: DIQMTQSPSSLSASVGDRITITCQANQDINNYLNWYQQKPGKAPKLLISDASNLETGVPSRFSGSGSGTDFTFTISSLQPEDIATYYCQQYDNLPPTFGQGTRLEIKR
notes: Human IgG1 Fc (H1H)
B3: H1H142P (antibody, human IgG1, V domains shown)
VH: QVQLQESGPGLVKPSQTLSLTCTVSGGSISSGDYYWNWIRQYPGKGLELIGYIYYSGITYYNPSLKSRLTISLDTSKNQFSLKLSSVTAADTAVYYCARDRVELRAFDIWGQGTMVTVSS
VL: DIQMTQSPSSLSASIGDRITISCQASQDINNYLNWYQQKPGKAPKLLIYDASNLETGIPSRFSGSGSGTDFTFTISGLQPEDIATYYCQHYDSLPLTFGQGTRLEIK
notes: Human IgG1 Fc (H1H)
B4: H1H144P (antibody, human IgG1, V domains shown)
VH: QVQLQESGPGLVMPSQTLSLTCTVSGGSINSGDYYWNWIRQHPGKGLEWIGYIYYSEISYHNPSLKSRVTTSIDTSTNQFSLKLSSVTAADTAVYYCARDRVELRAFDIWGQGTMVTVSS
VL: B3 VL with I15V, I19V, S22T, N30S, I58V, G77S
notes: Human IgG1 Fc (H1H)
B5: H1H143P (antibody, human IgG1, V domains shown)
VH: B4 VH
VL: B3 VL with I15V, I19V, S22T, N30S, I58V, G77S
notes: Human IgG1 Fc (H1H)
B6: H1H141P (antibody, human IgG1, V domains shown)
VH: B3 VH
VL: B3 VL with I15V, I19V, S22T, N30S, Y49N, I58V, G77S
notes: Human IgG1 Fc (H1H)
B7: H1H0085N (antibody, V domains shown)
VH: EVQLVESGGGLVQPGRSLRLSCAASGFTFDDYAMHWVRQAPGKGLEWVSGINWNSDKIAYADSVKGRFTISRDNAENSLFLQMNSLRPEDTALYYCVKRGDFWTEYYDYWGQGTLVTVSS
VL: DIVMTQSPLSLPVTPGEPASISCRSSQSLLHSNGYNYLDWYLQKPGQSPHLLIYLVSTRASGVPDRFSGSGSGTDFTLKISRVEAEDVGVYYCIQALQTPWTFGQGTKVEIK
notes: Tested in human IgG1 Fc format (H1H prefix); first obtained as H1M (mouse IgG1 Fc) from a hybridoma; also called H1M085N; H1H085N
B8: H1H103N (antibody, human IgG1, V domains shown)
VH: EVQLVESGGGLVQPGGSLRLSCAASGFTFSSYDMHWVRQTTGKGLEWVSGIGTAGDTYYPGSVKGRFTISREDAKNSLYLQMNSLRAGDTAVYYCARVGYDWNFVAFDYWGQGTLVTVSS
VL: B7 VL with H50Q, Y54H, T58I, V90I, I94M
notes: Tested in human IgG1 Fc format (H1H); also called H1M103N
B9: H1H089N (antibody, human IgG1, V domains shown)
VH: B7 VH with E105D
VL: B7 VL with Y35H, T58N
notes: Tested in human IgG1 Fc format (H1H); also called H1M089N
B10: H1H086N (antibody, human IgG1, V domains shown)
VH: B7 VH with E105D
VL: B7 VL with I94M
notes: Tested in human IgG1 Fc format (H1H); also called H1M086N
B11: H1H159P (antibody, human IgG1, V domains shown)
VH: EVQLVESGGGLVQPGGSLRLSCAASRFTFTNYWMSWVRQAPGKGLEWVAKIKQDGSEKYYLDSVKDRFTISRDNAKNSLYLQMNSLRAEDTAVYYCASSSSWYDYYYGMDVWGHGTTVTVSS
VL: EIVLTQSPDFQSVTPKEKVTITCRASQSIGTNLHWYQQRPDQSPKLLIKFASQSFSGVPSRFSGSGSGTDFTLTINSLEAEDAATYYCHQTNFLPHTFGGGTKVEIKR
notes: Human IgG1 Fc (H1H)
B12: H1H169P (antibody, human IgG1, V domains shown)
VH: B11 VH with T30S, N31T, S100I, S101T
VL: EIVLTQSPDFQSVTPKEKVTITCRASQSIGSNLHWYQQKPDQSPNLLIKFASQSFSGVPSRFSGSGSGTDFTLTINSLEAEDAATYYCHQTNFLPHTFGGGTKVEIK
notes: Human IgG1 Fc (H1H)
B13: H1H161P (antibody, human IgG1, V domains shown)
VH: QVQLVESGGGVVQPGRSLRLSCAASGFTFSNYGMYWVRQAPGKGLEWVTFISYDGSNKNYVDSMKGRFTISRDNSKNTLYLQMNSLRVEDTAVYYCAKDRISGTPWYGMDVWGQGTTVTVSS
VL: DIQMTQSPSSLSASVGDRVTITCRASQDIADYLAWFQQKPGKAPKSLIFAASSLESWVPLKFSGSGSGTDFTLTISSLQPEDFATYYCQQYSRFPITFGQGTKVEIK
notes: Human IgG1 Fc (H1H)
B14: H1H163P (antibody, human IgG1, V domains shown)
VH: B13 VH with Y35H, F50L, S52E, Y53H, M64V, S102T
VL: B13 VL with S92N, K103R, V104L
notes: Human IgG1 Fc (H1H)
B15: H1H102N (antibody, human IgG1, V domains shown)
VH: QVQLQESGPGLVQPSQTLSLTCTVSGGSVSSGDYYWSWIRQHPGKGLEWIGHIYYSGITYYNPSLESRVTITLDTSKNQFSLNLRSVTAADTAVHYCARTAIIGTMDNWGRGTLVTVSS
VL: EIVMTQSPATLSVSPGERATLSCRASQSVSSNLAWYQQKPGQAPRLLIYDASTRATGFPARFSGSGSGTEFTLTISSLQSEDFAVYYCQQYNTWWTFGQGTKVEIK
notes: Tested in human IgG1 Fc format (H1H); also called H1M102N

Target: T1, human monomeric EGFR (EGFR.mmh) (human, UniProt P00533 25-647)
T1 construct: Soluble monomeric EGFR construct
Assay: SPR 37C, mAb captured by anti-human Fc, EGFR.mmh analyte
Experimental: (§1) Different concentrations of human monomeric (EGFR.mmh; SEQ ID NO:386) and dimeric (EGFR.mFc; SEQ ID NO:387) proteins were injected over the anti-EGFR monoclonal antibody captured surface at a flow rate of 50 μI/min. Antibody-antigen association was monitored for 4-5 minutes while dissociation of antigen from the captured monoclonal antibody surface was monitored for 10 min. Kinetic association (kₐ) and dissociation (kd) rate constants were determined by processing and fitting the data to a 1:1 binding model using Scrubber 2.0 curve fitting software.

Kd [nM] | koff [s⁻¹] | kon [M⁻¹ s⁻¹] | t1/2 [min] | Binder
8.4 | 0.00113 | 134000 | 10 | B1
5.76 | 0.000376 | 65400 | 31 | B2
4.35 | 0.000689 | 158000 | 17 | B3
5.25 | 0.000967 | 184000 | 12 | B4
5.71 | 0.000727 | 127000 | 16 | B5
1.02 | 0.000405 | 396000 | 29 | B6
15.5 | 0.00185 | 119000 | 6 | B7
13.9 | 0.00139 | 100000 | 8 | B8
21.8 | 0.00683 | 313000 | 2 | B9
1.31 | 0.000708 | 540000 | 16 | B10
0.682 | 0.000325 | 476000 | 36 | B11
1.31 | 0.000869 | 665000 | 13 | B12
0.655 | 0.000321 | 489000 | 36 | B13
0.834 | 0.000426 | 511000 | 27 | B14
5.67 | 0.000943 | 166000 | 12 | B15

Target: T2, human dimeric EGFR (EGFR.mFc) (human)
T2 construct: Soluble dimeric EGFR construct
Assay: SPR 37C, mAb captured by anti-human Fc, EGFR.mFc analyte
Experimental: as §1

Kd [nM] | koff [s⁻¹] | kon [M⁻¹ s⁻¹] | t1/2 [h] | Binder
0.0664 | 1.26e-05 | 190000 | 15.2 | B2
0.0332 | 1.2e-05 | 361000 | 16.1 | B3
0.0217 | 1.94e-05 | 894000 | 9.93 | B4
0.0354 | 1.35e-05 | 381000 | 14.3 | B5
0.00831 | 7.51e-06 | 903000 | 25.6 | B6
0.12 | 4.05e-05 | 336000 | 4.77 | B7
0.109 | 4.19e-05 | 383000 | 4.6 | B8
0.0301 | 4.49e-05 | 1.49e+06 | 4.28 | B9
0.00598 | 1.13e-05 | 1.9e+06 | 17 | B10
0.00344 | 5.63e-06 | 1.64e+06 | 34.2 | B11
0.00736 | 1.69e-05 | 2.29e+06 | 11.4 | B12
0.00159 | 2.76e-06 | 1.73e+06 | 69.8 | B13
0.00117 | 2.12e-06 | 1.81e+06 | 90.8 | B14
0.0651 | 5.62e-05 | 863000 | 3.43 | B15

Target: T3, EGFR on A431 epidermoid carcinoma cells (human, UniProt P00533 25-1210)
Assay: cell-based or functional assay

ADCC EC50 [Molar] | Binder | Maximum Cell Killing (%)
5.48e-09 | B1 | 68
– | B2 | 13
1.19e-12 | B3 | 34
4.57e-11 | B4 | 43
– | B5 | 13
2.78e-12 | B6 | 41
3.7e-13 | B7 | 35
7.25e-13 | B8 | 17
5.83e-12 | B9 | 53
2.91e-13 | B10 | 25
2.69e-09 | B11 | 60
4.81e-09 | B12 | 27
9.8e-12 | B13 | 38
2.96e-10 | B14 | 48
4.39e-13 | B15 | 48

Target: T3, EGFR on A431 epidermoid carcinoma cells
Assay: cell-based or functional assay
Remark: another data set of the same source

IC50 of A431 Proliferation [Molar] | Binder
2.77e-10 | B1
9.77e-11 | B2
5.47e-10 | B3
1.39e-11 | B4
9.97e-11 | B5
1.41e-10 | B6
1.65e-09 | B7
3.89e-09 | B8
2.3e-09 | B9
5.46e-10 | B10
2.88e-10 | B15
